Key:
[1] = biological target: Bcl-2 (mouse; recombinant, and endogenous in mouse heart) (UniProt P10417); experiment: GST pull-down after kinase reaction; conditions: sites T108
Bcl-xL (recombinant) = Bcl-xL (recombinant) (UniProt Q07817); experiment: GST pull-down after kinase reaction; conditions: reference: GST-Beclin1-WT without Mst1; sites T108

Question: What does the source list for “Beclin1 (recombinant GST-Beclin1; adenoviral Beclin1 constructs) (from UniProt Q14457) GST-Beclin1-WT treated with Mst1 and ATP”?
Answer: binding against the reference ([1]; reference: GST-Beclin1-WT without Mst1): stronger; binding against the reference (Bcl-xL (recombinant)): stronger

Question: With “Beclin1 (recombinant GST-Beclin1; adenoviral Beclin1 constructs) Beclin1-N2, 72-163 (from UniProt Q14457) GST-Beclin1-N2 treated with Mst1 and ATP” as the substance, how does the “binding against the reference” value ([1]; reference: GST-Beclin1-N2 without Mst1) read?
Answer: The value was “stronger”.

From PMC3823824
